Measured values as given in doi:10.1101/2025.05.23.655772.

How the values were obtained:
[1] = target: catalytically inactive USP5 C335A (human) (UniProt P45974); experiment: FRET or BRET
[2] = target: ubiquitin-specific protease 5, wild type (human) (UniProt P45974); experiment: thermal shift assay
ubiquitin-specific protease 5, wild type (human), sequence (P45974 whole entry): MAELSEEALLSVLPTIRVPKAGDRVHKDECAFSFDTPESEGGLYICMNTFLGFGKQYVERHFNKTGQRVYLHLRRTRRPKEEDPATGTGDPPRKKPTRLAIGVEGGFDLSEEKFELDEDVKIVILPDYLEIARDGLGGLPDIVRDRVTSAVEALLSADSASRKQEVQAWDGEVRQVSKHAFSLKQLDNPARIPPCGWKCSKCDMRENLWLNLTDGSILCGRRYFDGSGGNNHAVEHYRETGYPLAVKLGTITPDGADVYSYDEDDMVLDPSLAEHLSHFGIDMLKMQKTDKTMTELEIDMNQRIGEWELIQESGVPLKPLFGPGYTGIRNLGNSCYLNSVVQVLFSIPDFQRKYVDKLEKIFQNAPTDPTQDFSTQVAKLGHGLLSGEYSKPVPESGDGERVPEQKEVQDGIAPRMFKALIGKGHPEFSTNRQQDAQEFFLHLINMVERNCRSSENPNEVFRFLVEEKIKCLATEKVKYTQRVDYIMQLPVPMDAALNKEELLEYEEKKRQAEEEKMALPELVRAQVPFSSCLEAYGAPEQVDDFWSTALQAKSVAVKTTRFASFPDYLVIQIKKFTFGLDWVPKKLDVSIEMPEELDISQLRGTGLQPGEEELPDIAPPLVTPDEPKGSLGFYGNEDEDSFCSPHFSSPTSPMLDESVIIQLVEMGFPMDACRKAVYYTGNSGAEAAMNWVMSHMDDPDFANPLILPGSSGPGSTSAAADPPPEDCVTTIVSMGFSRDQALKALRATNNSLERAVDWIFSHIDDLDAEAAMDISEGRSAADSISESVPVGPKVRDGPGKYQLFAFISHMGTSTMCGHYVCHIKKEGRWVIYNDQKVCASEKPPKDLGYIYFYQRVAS

catalytically inactive USP5 C335A (human), sequence (P45974 whole entry C335A): as the sequence (P45974 whole entry) above, with C335A counted along it

Kd [1]	Tm of the covalent complex [2]	Substance
1000 nM	–	Cy5-labelled SDE2UBL (from UniProt Q6IQ49 1-77) (domain or fragment)
–	57.6 °C	ISG15-PA, ISG15 propargylamide activity-based probe (from UniProt P05161 1-157)
